According to the supplement of paper PMC9112550, “Optimization of the antimicrobial peptide Bac7 by deep mutational scanning” (BMC Biology, 2022):

Test system: Escherichia coli TOP10
Test: shrunken log2 fold change of peptide-encoding DNA abundance (4.5 h post-induction vs induction); higher = less antimicrobial activity (less host growth inhibition)
Conditions: time post-induction: 4.5 h; library: site-saturation at positions 5, 18, 19, 20
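Further: peptides expressed intracellularly from a pBAD plasmid library in pooled LB shake-flask culture, induced with 0.3% L-arabinose, DNA abundance read by NGS, three biological replicates, DESeq2 with apeglm shrinkage.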

Sequence	shrunken log2 fold change
RRIRDRPPRLPRPRPRPWHLPRP	-0.231
RRIRDRPPRLPRPRPRPWIAPRP	-0.117
RRIRDRPPRLPRPRPRPWIQPRP	-0.653
RRIRDRPPRLPRPRPRPWIYPRP	-0.304
RRIRDRPPRLPRPRPRPWLAPRP	0.171
RRIRDRPPRLPRPRPRPWLKPRP	-0.00783
RRIRDRPPRLPRPRPRPWLQPRP	0.133
RRIRDRPPRLPRPRPRPWMHPRP	0.00346
RRIRDRPPRLPRPRPRPWMTPRP	-0.29
RRIRDRPPRLPRPRPRPWMVPRP	0.333
RRIRDRPPRLPRPRPRPWQLPRP	0.0822
RRIRDRPPRLPRPRPRPWRFPRP	-0.277
RRIRDRPPRLPRPRPRPWSGPRP	-0.0455
RRIRDRPPRLPRPRPRPWSHPRP	0.0226
RRIRDRPPRLPRPRPRPWTKPRP	0.0467
RRIRDRPPRLPRPRPRPWVWPRP	0.702
RRIRDRPPRLPRPRPRPWWSPRP	-0.0691
RRIRDRPPRLPRPRPRPWWVPRP	-0.335
RRIRDRPPRLPRPRPRPYESPRP	0.00683
RRIRDRPPRLPRPRPRPYGGPRP	-0.122
RRIRDRPPRLPRPRPRPYGVPRP	0.00737
RRIRDRPPRLPRPRPRPYHHPRP	-0.0229

Sequence	shrunken log2 fold change
RRIRDRPPRLPRPRPRPYHNPRP	-0.461
RRIRDRPPRLPRPRPRPYICPRP	-0.148
RRIRDRPPRLPRPRPRPYISPRP	-0.176
RRIRDRPPRLPRPRPRPYKRPRP	0.000522
RRIRDRPPRLPRPRPRPYMCPRP	-0.0331
RRIRDRPPRLPRPRPRPYMNPRP	-0.665
RRIRDRPPRLPRPRPRPYNDPRP	-0.307
RRIRDRPPRLPRPRPRPYPHPRP	1.85
RRIRDRPPRLPRPRPRPYRTPRP	-0.0206
RRIRDRPPRLPRPRPRPYSMPRP	-0.0516
RRIRDRPPRLPRPRPRPYSPPRP	0.0205
RRIRDRPPRLPRPRPRPYSVPRP	-0.0716
RRIRDRPPRLPRPRPRPYVCPRP	0.0261
RRIRDRPPRLPRPRPRPYVPPRP	-0.604
RRIRDRPPRLPRPRPRPYYYPRP	-1.11
RRIRERPPRLPRPRPRPAAKPRP	0.0307
RRIRERPPRLPRPRPRPACFPRP	0.00624
RRIRERPPRLPRPRPRPACKPRP	0.104
RRIRERPPRLPRPRPRPACLPRP	-0.0938
RRIRERPPRLPRPRPRPACMPRP	-0.0379
RRIRERPPRLPRPRPRPADPPRP	-0.35
RRIRERPPRLPRPRPRPAFHPRP	-0.154

Sequence	shrunken log2 fold change
RRIRERPPRLPRPRPRPAFYPRP	-0.32
RRIRERPPRLPRPRPRPAGCPRP	-0.0935
RRIRERPPRLPRPRPRPAGPPRP	-0.0342
RRIRERPPRLPRPRPRPAHGPRP	0.131
RRIRERPPRLPRPRPRPAHVPRP	-0.0768
RRIRERPPRLPRPRPRPALEPRP	0.0291
RRIRERPPRLPRPRPRPAMMPRP	-0.163
RRIRERPPRLPRPRPRPAPCPRP	0.0086
RRIRERPPRLPRPRPRPAQYPRP	0.0972
RRIRERPPRLPRPRPRPARDPRP	0.19
RRIRERPPRLPRPRPRPAREPRP	0.0588
RRIRERPPRLPRPRPRPARWPRP	0.592
RRIRERPPRLPRPRPRPASHPRP	-0.34
RRIRERPPRLPRPRPRPASIPRP	-0.327
RRIRERPPRLPRPRPRPAVCPRP	0.086
RRIRERPPRLPRPRPRPAVGPRP	0.209
RRIRERPPRLPRPRPRPAWMPRP	0.501
RRIRERPPRLPRPRPRPAWNPRP	0.167
RRIRERPPRLPRPRPRPCAGPRP	-0.0261
RRIRERPPRLPRPRPRPCAIPRP	-0.15
RRIRERPPRLPRPRPRPCARPRP	0.0326
RRIRERPPRLPRPRPRPCASPRP	-0.172

Sequence	shrunken log2 fold change
RRIRERPPRLPRPRPRPCCDPRP	-0.362
RRIRERPPRLPRPRPRPCFCPRP	-0.318
RRIRERPPRLPRPRPRPCGFPRP	-0.303
RRIRERPPRLPRPRPRPCGYPRP	-0.239
RRIRERPPRLPRPRPRPCIMPRP	-0.397
RRIRERPPRLPRPRPRPCINPRP	-0.0818
RRIRERPPRLPRPRPRPCKFPRP	-0.214
RRIRERPPRLPRPRPRPCLCPRP	-0.134
RRIRERPPRLPRPRPRPCNMPRP	-0.101
RRIRERPPRLPRPRPRPCNYPRP	-0.746
RRIRERPPRLPRPRPRPCTGPRP	-0.264
RRIRERPPRLPRPRPRPCWVPRP	-0.26
RRIRERPPRLPRPRPRPDCSPRP	-0.148
RRIRERPPRLPRPRPRPDCVPRP	-0.191
RRIRERPPRLPRPRPRPDEPPRP	-0.0946
RRIRERPPRLPRPRPRPDEQPRP	-0.00815
RRIRERPPRLPRPRPRPDFDPRP	-0.356
RRIRERPPRLPRPRPRPDGGPRP	0.0135
RRIRERPPRLPRPRPRPDLHPRP	-0.262
RRIRERPPRLPRPRPRPDMYPRP	-0.0361
RRIRERPPRLPRPRPRPDQTPRP	-0.00664
RRIRERPPRLPRPRPRPDRQPRP	-0.0719

Sequence	shrunken log2 fold change
RRIRERPPRLPRPRPRPDWCPRP	0.0337
RRIRERPPRLPRPRPRPDWLPRP	0.00866
RRIRERPPRLPRPRPRPDWQPRP	-0.552
RRIRERPPRLPRPRPRPEAHPRP	0.201
RRIRERPPRLPRPRPRPEALPRP	0.0535
RRIRERPPRLPRPRPRPEDAPRP	-0.079
RRIRERPPRLPRPRPRPEDPPRP	-0.134
RRIRERPPRLPRPRPRPEFVPRP	0.137
RRIRERPPRLPRPRPRPEGCPRP	-0.318
RRIRERPPRLPRPRPRPEGFPRP	-0.00351
RRIRERPPRLPRPRPRPEGQPRP	-0.015
RRIRERPPRLPRPRPRPEHCPRP	-0.014
RRIRERPPRLPRPRPRPEHHPRP	-0.543
RRIRERPPRLPRPRPRPEHNPRP	-0.203
RRIRERPPRLPRPRPRPEIRPRP	-0.163
RRIRERPPRLPRPRPRPEKAPRP	-0.0229
RRIRERPPRLPRPRPRPEKRPRP	-0.0657
RRIRERPPRLPRPRPRPELKPRP	0.138
RRIRERPPRLPRPRPRPELPPRP	-0.0646
RRIRERPPRLPRPRPRPEMCPRP	-0.0143
RRIRERPPRLPRPRPRPENIPRP	-0.227
